Conditions in all cases: both partners purified
The target in experiment [1] is T1, human LRRTM2 LRR domain, wild type (human, UniProt O43300 34-371).
T1 construct: signal peptide in the construct; human LRRTM2 LRR domain, residues 1-371 cloned (residues 34-371 are named for the crystallised protein); Secreted with its own signal peptide; the mature protein probably begins at residue 34, as in the crystallised protein; also called LRRTM2^WT; hLRRTM2; source: Expi293F, transiently expressed, purified from culture medium (Ni-NTA, SEC)
T1 sequence (looked up): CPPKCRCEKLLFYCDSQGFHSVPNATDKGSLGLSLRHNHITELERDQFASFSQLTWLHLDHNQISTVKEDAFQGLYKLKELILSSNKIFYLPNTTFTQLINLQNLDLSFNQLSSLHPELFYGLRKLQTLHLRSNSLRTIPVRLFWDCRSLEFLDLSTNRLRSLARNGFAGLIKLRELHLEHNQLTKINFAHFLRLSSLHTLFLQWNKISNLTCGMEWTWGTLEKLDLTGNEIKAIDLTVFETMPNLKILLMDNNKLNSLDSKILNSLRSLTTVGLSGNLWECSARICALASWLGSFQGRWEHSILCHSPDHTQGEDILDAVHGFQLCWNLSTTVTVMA
Kind of experiment: ITC; MicroCal Auto-iTC, 25 °C; LRRTM2 (15 µM) in the cell, Nrxn1β (200 µM) injected; 20 mM Hepes-NaOH pH 7.5, 150 mM NaCl, 2 mM CaCl2, 0.005% Tween-20, no BSA; one-site model. For orientation: Isothermal titration calorimetry measures the heat released or taken up as one component is titrated into another.

The target of experiment [2] is T1, human LRRTM2 LRR domain, wild type. Briefly: SPR; Biacore T200; wild-type or mutant LRRTM immobilised on a CM5 chip by amine coupling; Nrxn1β as analyte in two-fold dilutions from 40 µM (from 160 µM for +S4 and R206A); 25 °C; 20 mM Hepes-NaOH pH 7.5, 150 mM NaCl, 2 mM CaCl2, 0.005% Tween-20, 0.5 g/L BSA; equilibrium KD. In general terms: Surface plasmon resonance follows binding to a sensor surface in real time, without labels.

The target of experiment [3] is T2, human LRRTM2 LRR domain, H355A mutant (human, UniProt O43300 34-371, H355A).
T2 construct: signal peptide in the construct; human LRRTM2 LRR domain, residues 1-371 cloned, with H355A; Neuraminidase was added before crystallization to trim N-linked glycans; also called LRRTM2^H355A; hLRRTM2^H355A; source: Expi293F, transiently expressed, purified from culture medium (Ni-NTA, SEC); for crystallization coexpressed with Nrxn1β (–S4) LNS and separated by SEC
T2 sequence (looked up): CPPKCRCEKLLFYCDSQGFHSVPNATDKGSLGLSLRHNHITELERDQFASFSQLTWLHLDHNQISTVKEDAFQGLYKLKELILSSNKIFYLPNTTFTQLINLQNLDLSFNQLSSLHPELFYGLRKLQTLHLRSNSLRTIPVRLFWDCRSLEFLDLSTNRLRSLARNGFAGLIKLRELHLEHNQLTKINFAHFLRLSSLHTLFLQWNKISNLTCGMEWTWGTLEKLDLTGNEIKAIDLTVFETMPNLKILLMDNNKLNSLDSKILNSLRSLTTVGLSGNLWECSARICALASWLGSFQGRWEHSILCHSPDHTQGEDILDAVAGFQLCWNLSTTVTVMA
The description is as above.

Experiment [4] has as its target T3, human LRRTM2 LRR domain, D352A mutant (human, UniProt O43300 34-371, D352A).
T3 construct: signal peptide in the construct; human LRRTM2 LRR domain, residues 1-371 cloned, with D352A; also called LRRTM2 D352A; source: Expi293F, transiently expressed, purified from culture medium (Ni-NTA, SEC)
T3 sequence (looked up): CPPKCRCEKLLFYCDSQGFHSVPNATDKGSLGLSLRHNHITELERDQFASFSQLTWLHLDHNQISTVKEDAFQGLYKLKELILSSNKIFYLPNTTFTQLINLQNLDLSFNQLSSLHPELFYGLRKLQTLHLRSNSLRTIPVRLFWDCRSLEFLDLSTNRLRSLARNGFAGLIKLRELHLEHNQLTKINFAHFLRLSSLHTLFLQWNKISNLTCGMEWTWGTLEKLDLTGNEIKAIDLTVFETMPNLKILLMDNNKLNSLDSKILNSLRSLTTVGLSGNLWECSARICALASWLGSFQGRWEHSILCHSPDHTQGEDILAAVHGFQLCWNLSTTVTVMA
The experiment is described as above.

The target in experiment [5] is T4, human LRRTM2 LRR domain, F357Y mutant (human, UniProt O43300 34-371, F357Y).
T4 construct: signal peptide in the construct; human LRRTM2 LRR domain, residues 1-371 cloned, with F357Y; also called LRRTM2^F357Y; source: Expi293F, transiently expressed, purified from culture medium (Ni-NTA, SEC)
T4 sequence (looked up): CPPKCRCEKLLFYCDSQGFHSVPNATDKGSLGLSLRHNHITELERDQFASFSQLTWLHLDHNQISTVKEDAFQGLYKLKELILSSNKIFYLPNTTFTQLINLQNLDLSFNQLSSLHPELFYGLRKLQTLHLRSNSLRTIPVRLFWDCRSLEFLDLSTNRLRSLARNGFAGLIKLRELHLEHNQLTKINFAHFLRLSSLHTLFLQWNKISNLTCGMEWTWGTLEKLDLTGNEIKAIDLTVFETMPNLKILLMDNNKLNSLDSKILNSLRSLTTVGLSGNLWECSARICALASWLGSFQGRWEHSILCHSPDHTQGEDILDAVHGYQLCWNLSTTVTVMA
The description is as above.

B1: human Nrxn1β LNS domain (–S4), wild type (domain or fragment)
chain: not shown
notes: human neurexin-1β LNS domain, splice variant without the S4 insert, residues 86-266; numbers count on: human Nrxn1β (–S4) (NM_001330092.1); also called Nrxn1β (–S4); Nrxin1β (–S4); source: Expi293F, transiently expressed, purified from culture medium (Ni-NTA, SEC); for crystallization coexpressed with LRRTM2 LRR and separated by SEC
For B1, the Kd – broadly, the constant that tells how readily two partners part at equilibrium – was determined as 4.2 µM in experiment [1], 4 µM in experiment [2] and 4.3 µM in experiment [3]. Also, the “fold decrease in affinity against wild-type LRRTM2” value in experiment [4] is above 9 fold; in experiment [5], around 5 fold.

B2: human Nrxn1β LNS domain (–S4), R206A mutant (domain or fragment)
chain: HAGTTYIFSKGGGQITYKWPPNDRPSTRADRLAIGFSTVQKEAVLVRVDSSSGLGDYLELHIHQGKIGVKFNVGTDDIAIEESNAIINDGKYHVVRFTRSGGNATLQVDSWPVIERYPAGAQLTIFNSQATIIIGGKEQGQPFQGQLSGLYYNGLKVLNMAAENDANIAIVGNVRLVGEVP
modifications: Ca2+-bound (2 mM CaCl2). Entry P58400 carries the S4 insert at 205-234, so paper (-S4) residues 205-266 are entry 235-296 (R206 = R236).
In experiment [2], B2 yielded a Kd above 160 µM.

B3: human Nrxn1β LNS domain with the S4 insert (+S4) (domain or fragment)
chain: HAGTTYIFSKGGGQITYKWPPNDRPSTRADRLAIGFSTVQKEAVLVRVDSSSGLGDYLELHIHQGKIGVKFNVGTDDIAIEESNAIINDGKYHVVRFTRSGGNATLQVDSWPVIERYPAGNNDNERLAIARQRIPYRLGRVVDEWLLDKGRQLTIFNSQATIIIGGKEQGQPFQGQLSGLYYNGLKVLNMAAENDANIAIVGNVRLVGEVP
modifications: Ca2+-bound (2 mM CaCl2). S4 insert is entry residues 205-234.
For the molecule B3, in experiment [2], the Kd is above 80 µM.

Values taken from publication PMC6160412, “Structural insights into modulation and selectivity of transsynaptic neurexin–LRRTM interaction” (Nature Communications, 2018).
